Test results from the domain aggregation screens of Martell et al. (2025).

Test: soluble fraction after stress (log2 fold change); higher = more stays soluble; pooled small domains, quantitative proteomics
Details: stress: 50 degC
Procedure, shortened: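 Quantitative proteomics served as the high-throughput read-out for pooled custom libraries of small protein domains. Each was stressed at 50°C. Aggregation propensity is expressed as the base-two log fold change in soluble protein after stress. A higher value means a larger share of the protein remains in solution.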

**Q.** Which “soluble fraction (log2)” value does the source give for “HMLERKPVLVASRDLPALAVIGKDDLSVELLRTAPVGSYDRPEALLGKRVWVAVPAGSILSAATLEP” here?
**A.** -0.103

**Q.** For “HMNDTLGVNIKRLRKEKGMTQDEVAKAVYTTRYNILRYESGKMTPSSEVIERLEKALGVPTGSLAQ”, which “soluble fraction (log2)” value is on record?
**A.** -0.332

**Q.** Which “soluble fraction (log2)” value does the source give for “HMSQQEAQLNSLVKIYESMKPKDAARIFDTLDMDVLLDVVMRMKEARSAAVLAEMTPDRAKEVTLQLAD” here?
**A.** -0.61

**Q.** Which “soluble fraction (log2)” value does the source give for “HMGSDLVAWAQTRIGRHPEEAADVIAALIDRHGEARVRAASRSLLARKFAHASDLRTAIDAAIG” here?
**A.** -0.0161

**Q.** With “HMKNYYELLGVAREASQDQIKKAYRKLARKYHPDVSKEADAETRMQELNVAYDTLSDAEKKREYDFQLDHP” as the sequence, how does the “soluble fraction (log2)” value read?
**A.** 0.00768

**Q.** With “HMSLPKVLVPTDITVSQLAKYLEVDAIAIVKKLFGLGVVASLNQRLENEQMQLLGQEFGKDIIFTEN” as the sequence, how does the “soluble fraction (log2)” value read?
**A.** -0.438

**Q.** With “HMLLTEETLPQLKQIVDEFPYFQIARMLYLKNLAVLNDIRFSVELKKMSIYVPDRRKLFTLIEGE” as the sequence, how does the “soluble fraction (log2)” value read?
**A.** 0.00426

**Q.** Which “soluble fraction (log2)” value does the source give for “HMETIELSAPGGVRLDKLIADGTELSRSAAVKLIEQGNVLVNGSPAGKKDIPAAGAAVEITLPEPQ” here?
**A.** -0.134

**Q.** Which “soluble fraction (log2)” value does the source give for “HMNPTLPYGFAKRHGVILLEAGEVAVVGLREGADPAALIETRRALGRPLRVEPLDQATFDRRLSQVYA” here?
**A.** -0.148

**Q.** With “HMKEGGREEMSEIVERYGDERALMANITSVQNLMNNMKWTLDQALDALGIKGKERTLITQQLQ” as the sequence, how does the “soluble fraction (log2)” value read?
**A.** -0.147

**Q.** With “HMRIATVTPIEEDQASDRVVAVYNDIKSTKQIDFIPNFWKVIAVNPDLLEQVWGQLKTLMHPEEVG” as the sequence, how does the “soluble fraction (log2)” value read?
**A.** -0.659

**Q.** For “HMSRGTLFVDVRGAVAKPGVYELPEKSRVFQAVEAAGGLLPEALERLVNQAAELTDGQQVYIPFEGEE”, which “soluble fraction (log2)” value is on record?
**A.** 0.296

**Q.** Which “soluble fraction (log2)” value does the source give for “HMDAMLGEALRLIRVYHDLKQKQAAERLEVSTSYLSEIERGLKTPTLDIIQRYATVFDMPVSSIMFFSENL” here?
**A.** -3.03

**Q.** With “HMGEILYSGVLKGGDGPEATKLALEKFLGEANTQVAGRIGVQPETQVIWLSREAVDSAASTLSQHKGNMYV” as the sequence, how does the “soluble fraction (log2)” value read?
**A.** -0.085

**Q.** For “HMGQVFEGTFNRKANGKNSVTPAEGGEPVFIAERNSLHAMNGDLVKVSLLAKKKHQPREAQVIEILKRSD”, which “soluble fraction (log2)” value is on record?
**A.** 0.144

**Q.** For “HMISEWDAAYSYAKQYYEENGHLFVPKKYVTSEGAALGKWIWEQRDSYLGLSSYKISDKKIEMLEDIGMFW”, which “soluble fraction (log2)” value is on record?
**A.** -4.02

**Q.** With “HMNSKMTYSELVTNITNKEVESIKISSTGSTASVKLKNSKSEKEVNIPSLDSFMSYTEEYLKTGDFTLDEE” as the sequence, how does the “soluble fraction (log2)” value read?
**A.** -0.144

**Q.** With “HMSHKYKLTVPETGEGTRVDKFLSSALTELSRTRLKSLIEEGQVTLGGVKLTNPSHRVKSGDELNIEIPVP” as the sequence, how does the “soluble fraction (log2)” value read?
**A.** 0.146

**Q.** With “HMNPSFTMGTRIKEYIDAHYLEDLKLADIAEALHINLYYLSHTFKDLTGSSPMQYIIRRRIEE” as the sequence, how does the “soluble fraction (log2)” value read?
**A.** -0.778

**Q.** Which “soluble fraction (log2)” value does the source give for “HMDDHLRLSDNERISAMSALATHFTEGRLDTSEFDERTLAASQAKSRGDLRPLFDDLPGQLPAALSP” here?
**A.** 0.0376

**Q.** For “HMVNVTEAIDLENGTGKLSGTFNHEPKSAEEIIFLLKIDTNKWKLSQYWNKQMGDHWRVSALISQI”, which “soluble fraction (log2)” value is on record?
**A.** -1.91

**Q.** Which “soluble fraction (log2)” value does the source give for “HMTIERVKIKETPTGWLRVRETPDNNGSEIGRANVGEIYELLGSKGEWYHIVYKGKQGFISTKYAEKVL” here?
**A.** -0.22

**Q.** Which “soluble fraction (log2)” value does the source give for “HMALLSDEERIATVFAARLGGYSHQEIYKLLQDRFGPSLPAAYSEKSVLTDLQTALSQVPSL” here?
**A.** -0.208

**Q.** For “HMGLNEGLNEGQQKVIQHIQENEGIKVKEISLKLNMPIDTVDRHIRVLKNLNLIERRGSRKTGGYFISN”, which “soluble fraction (log2)” value is on record?
**A.** -0.266

**Q.** Which “soluble fraction (log2)” value does the source give for “HMRRVEDVRTALEHFAAARNTTPMAMTLDQRREAMRELAASGLLNLRRALSEVAQTLGVARSTVYTYLP” here?
**A.** -0.84

**Q.** For “HMSNHYETLGVPRDASQEDIKRAYRRLARKLHPDVAGPGKAEEFKAVNEAYAVLSDEESRRMYDLGGDDAL”, which “soluble fraction (log2)” value is on record?
**A.** 0.146

**Q.** For “HMEFDTEFVLRQAMHAFMQYGYAKTSMQKLKEATHLHPGSIYAAYGNKKGLFLAATEQYQKDR”, which “soluble fraction (log2)” value is on record?
**A.** -0.0761

**Q.** Which “soluble fraction (log2)” value does the source give for “HMQEKQIIDGREFYIHQVERGITLYSIAKQYNVKVADIQAENPFLEAGLQPGQTLKIPLDKVETVQEIK” here?
**A.** 0.125

**Q.** For “HMTTVKDRVYEILKREIVLGKLKPGEPINIAVLSTKLNISSAPLREALNMLSRDGLVTLNPRKHAAVSE”, which “soluble fraction (log2)” value is on record?
**A.** -0.499

**Q.** For “HMSGLEDIKKKILEDAGIKKGSVKFVKVDKDYDDGIWKYEIDFVYDGKEYEYEIEVETGKILSRKTEKSD”, which “soluble fraction (log2)” value is on record?
**A.** -0.317

**Q.** Which “soluble fraction (log2)” value does the source give for “HMNLLDYDFFEKMSSKEQEEIVEKVYIDFLNKSTGTNSPFYLKLFEKGKKSYIVNWLNENNF” here?
**A.** -1.44

**Q.** With “HMALKQADFDFIRQMIQQRAAIVLDDNKHYFVESRLGPVVEETGSKSLDQLIDQLRSSSNSLLQQKVTEAI” as the sequence, how does the “soluble fraction (log2)” value read?
**A.** -0.199

**Q.** With “HMNVDLLEARIPIQSHGMRLDQVVAELFPDYSRNRLAAWIKEGRLTVDGKTMKPRDRALASAHVVLEVV” as the sequence, how does the “soluble fraction (log2)” value read?
**A.** -0.18

**Q.** For “HMRGFGEVGQLPSGRYRARYTGPDGGRHSAPITFVARIDAEGWLVDQERMISRGEWEPPARQ”, which “soluble fraction (log2)” value is on record?
**A.** -0.224

**Q.** With “HMYSLSELERIKNFLTGYMSDYSIMMLDANEITNQVDISLKDYSDDNIESIKAAVLSHGGKTDYLNFIDDS” as the sequence, how does the “soluble fraction (log2)” value read?
**A.** -0.589

**Q.** With “HMKELTPEQLQHNWNNLRQFIDVNFSGDRLGGLNKMYDYFEERMMFAPASGKQHYHNAFAGGYVEHVMHV” as the sequence, how does the “soluble fraction (log2)” value read?
**A.** 0.335

**Q.** With “HMDWREMTAWMAELLKRRTGDDVETWNARVRESGAHDEASLRAWLTEQGVTGYAQTLLVMERFGYPDFF” as the sequence, how does the “soluble fraction (log2)” value read?
**A.** -1.22
